In the supplement of paper PMC10567573:

B1: RHOBTB3 (parent)
chain: QLQSMPSRELASMNLDIVDLLKKA

Variants of: B1
Experiment: protein stability index of a GFP-peptide fusion (GPS, HEK-293T) (PSI 1-6); higher = more stable
Settings: c terminus: a fixed tail appended
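Further: lentivirally expressed fusions sorted by FACS into six bins by GFP to DsRed ratio, PSI derived from sequencing read proportions per bin multiplied by bin number.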

Variant	protein stability index
QLQSMPSRELASNNLDIVDLLKKA [M13N]	4.17
QLQSMPSRELASPNLDIVDLLKKA [M13P]	4.01
QLQSMPSDELASMNLDIVDLLKKA [R8D]	4.11
QLQSMPSQELASMNLDIVDLLKKA [R8Q]	3.85
QLQSMPSEELASMNLDIVDLLKKA [R8E]	4.28
QLQSMPSMELASMNLDIVDLLKKA [R8M]	3.2
QLQSMPSGELASMNLDIVDLLKKA [R8G]	3.71
QLQSMPSKELASMNLDIVDLLKKA [R8K]	3.38
QLQSMPSYELASMNLDIVDLLKKA [R8Y]	2.66
QLQSMPSLELASMNLDIVDLLKKA [R8L]	2.35
QLQSMPSVELASMNLDIVDLLKKA [R8V]	3.83
QLQSMPSIELASMNLDIVDLLKKA [R8I]	2.33
QLQSMPSSELASMNLDIVDLLKKA [R8S]	3.99
QLQSMPSAELASMNLDIVDLLKKA [R8A]	4.22
QLQSMPSWELASMNLDIVDLLKKA [R8W]	2.58
QLQSMPSFELASMNLDIVDLLKKA [R8F]	2.65
QLQSMPSPELASMNLDIVDLLKKA [R8P]	3.22
QLQSMPSCELASMNLDIVDLLKKA [R8C]	3.85
QLQSMPSHELASMNLDIVDLLKKA [R8H]	3.94
QLQSMPSRLLASMNLDIVDLLKKA [E9L]	2.7
QLQSMPSRFLASMNLDIVDLLKKA [E9F]	2.92
QLQSMPSRALASMNLDIVDLLKKA [E9A]	3.1
QLQSMPSRTLASMNLDIVDLLKKA [E9T]	3.61
QLQSMPSRVLASMNLDIVDLLKKA [E9V]	3.04

Variant	protein stability index
QLQSMPSRGLASMNLDIVDLLKKA [E9G]	2.9
QLQSMPSRQLASMNLDIVDLLKKA [E9Q]	2.7
QLQSMPSRKLASMNLDIVDLLKKA [E9K]	2.27
QLQSMPSRILASMNLDIVDLLKKA [E9I]	2.44
QLQSMPSRCLASMNLDIVDLLKKA [E9C]	2.7
QLQSMPSRPLASMNLDIVDLLKKA [E9P]	2.78
QLQSMPSRHLASMNLDIVDLLKKA [E9H]	2.99
QLQSMPSRYLASMNLDIVDLLKKA [E9Y]	3.14
QLQSMPSRRLASMNLDIVDLLKKA [E9R]	2.15
QLQSMPSRDLASMNLDIVDLLKKA [E9D]	2.63
QLQSMPSRSLASMNLDIVDLLKKA [E9S]	3.6
QLQSMPSRNLASMNLDIVDLLKKA [E9N]	3.4
QLQSMPSRMLASMNLDIVDLLKKA [E9M]	2.31
QLQSMPSREQASMNLDIVDLLKKA [L10Q]	3.63
QLQSMPSREFASMNLDIVDLLKKA [L10F]	3.41
QLQSMPSREEASMNLDIVDLLKKA [L10E]	3.97
QLQSMPSREKASMNLDIVDLLKKA [L10K]	3.02
QLQSMPSRESASMNLDIVDLLKKA [L10S]	4.49
QLQSMPSREPASMNLDIVDLLKKA [L10P]	3.83
QLQSMPSREMASMNLDIVDLLKKA [L10M]	3.58
QLQSMPSREWASMNLDIVDLLKKA [L10W]	3.25
QLQSMPSRERASMNLDIVDLLKKA [L10R]	3.71
QLQSMPSREGASMNLDIVDLLKKA [L10G]	2.62
QLQSMPSREDASMNLDIVDLLKKA [L10D]	4.09

Variant	protein stability index
QLQSMPSRECASMNLDIVDLLKKA [L10C]	3.62
QLQSMPSREYASMNLDIVDLLKKA [L10Y]	3.88
QLQSMPSREAASMNLDIVDLLKKA [L10A]	4.18
QLQSMPSRETASMNLDIVDLLKKA [L10T]	4.32
QLQSMPSREVASMNLDIVDLLKKA [L10V]	3.6
QLQSMPSREIASMNLDIVDLLKKA [L10I]	2.95
QLQSMPSRENASMNLDIVDLLKKA [L10N]	3.33
QLQSMPSREHASMNLDIVDLLKKA [L10H]	3.24
QLQSMPSRELAIMNLDIVDLLKKA [S12I]	3.02
QLQSMPSRELAFMNLDIVDLLKKA [S12F]	3.22
QLQSMPSRELAQMNLDIVDLLKKA [S12Q]	4.1
QLQSMPSRELAPMNLDIVDLLKKA [S12P]	4.11
QLQSMPSRELAKMNLDIVDLLKKA [S12K]	3.63
QLQSMPSRELARMNLDIVDLLKKA [S12R]	2.13
QLQSMPSRELAYMNLDIVDLLKKA [S12Y]	2.95
QLQSMPSRELATMNLDIVDLLKKA [S12T]	3.75
QLQSMPSRELACMNLDIVDLLKKA [S12C]	3.33
QLQSMPSRELAHMNLDIVDLLKKA [S12H]	3.06
QLQSMPSRELAAMNLDIVDLLKKA [S12A]	3.28
QLQSMPSRELAEMNLDIVDLLKKA [S12E]	4.26
QLQSMPSRELAWMNLDIVDLLKKA [S12W]	2.5
QLQSMPSRELAVMNLDIVDLLKKA [S12V]	3.95
QLQSMPSRELALMNLDIVDLLKKA [S12L]	3.54
QLQSMPSRELANMNLDIVDLLKKA [S12N]	3.06

Variant	protein stability index
QLQSMPSRELAMMNLDIVDLLKKA [S12M]	3.24
QLQSMPSRELADMNLDIVDLLKKA [S12D]	3.68
QLQSMPSRELAGMNLDIVDLLKKA [S12G]	3.9
QLQSMPSRELESMNLDIVDLLKKA [A11E]	3.73
QLQSMPSRELGSMNLDIVDLLKKA [A11G]	3.19
QLQSMPSRELQSMNLDIVDLLKKA [A11Q]	3.37
QLQSMPSRELFSMNLDIVDLLKKA [A11F]	2.76
QLQSMPSRELLSMNLDIVDLLKKA [A11L]	3.11
QLQSMPSRELWSMNLDIVDLLKKA [A11W]	2.79
QLQSMPSRELSSMNLDIVDLLKKA [A11S]	3.54
QLQSMPSRELDSMNLDIVDLLKKA [A11D]	3.75
QLQSMPSRELTSMNLDIVDLLKKA [A11T]	3.28
QLQSMPSRELHSMNLDIVDLLKKA [A11H]	3.21
QLQSMPSRELKSMNLDIVDLLKKA [A11K]	2.72
QLQSMPSRELYSMNLDIVDLLKKA [A11Y]	2.86
QLQSMPSRELNSMNLDIVDLLKKA [A11N]	3.29
QLQSMPSRELCSMNLDIVDLLKKA [A11C]	3.17
QLQSMPSRELPSMNLDIVDLLKKA [A11P]	3.27
QLQSMPSRELISMNLDIVDLLKKA [A11I]	2.87
QLQSMPSRELRSMNLDIVDLLKKA [A11R]	2.81
QLQSMPSRELVSMNLDIVDLLKKA [A11V]	3.27
QLQSMPSRELMSMNLDIVDLLKKA [A11M]	3.34
